B1: library; numbered along this chain (parent)
chain: MRKPRAAVGSGHRKQAASQEGRQKHAKNNSQAKPSACDGLARQPEEVVLQASVSSYHLFRDVAEVTAFRGSLLSWYDQEKRDLPWRRRAEDEMDLDRRAYAVWVSEVMLQQTQVATVINYYTGWMQKWPTLQDLASASLEEVNQLWAGLGYYSRGRRLQEGARKVVEELGGHMPRTAETLQQLLPGVGRYTAGAIASIAFGQATGVVDGNVARVLCRVRAIGADPSSTLVSQQLWGLAQQLVDPARPGDFNQAAMELGATVCTPQRPLCSQCPVESLCRARQRVEQEQLLASGSLSGSPDVEECAPNTGQCHLCLPPSEPWDQTLGVVNFPRKASRKPPREESSATCVLEQPGALGAQILLVQRPNSGLLAGLWEFPSVTWEPSEQLQRKALLQELQRWAGPLPATHLRHLGEVVHTFSHIKLTYQVYGLALEGQTPVTTVPPGARWLTQEEFHTAAVSTAMKKVFRVYQGQQPGTCMGSKRSQVSSPCSRKKPRMGQQVLDNFFRSHISTDAHSLNSAAQ

Variants of: B1
Test: 8OG:A repair function score (normalized; synonymous = 0, nonsense = -1) (normalized log-likelihood score); higher = more repair activity (WT-like)
Conditions: with 8OG:A DNA repair reporter (GFP) in HEK-293 MUTYH KO cells
Description: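 Saturation mutagenesis (NNN codon scan) of the MUTYH cDNA (521-aa nuclear isoform NM_001048174.1 / NP_001041639), stably expressed under doxycycline induction in HEK-293 MUTYH knockout cells. Cells were co-transfected with an 8OG:A-bearing GFP repair reporter plus mCherry and sorted 72 h later into GFP+ and GFP− bins, three replicates per tile. The Rosace log2 enrichment (GFP+ vs GFP−) was converted per tile to a normalized function score with synonymous variants centered at 0 and nonsense variants (codons 1-471) at -1; low-abundance variants were removed.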

Variant	8OG:A repair function score
MRKPRAAVGSGHRKQAASQEGRQKHAKNNSQAKPSACDGLARQPEEVVLQASVSSYHLFRDVAEVTAFRGSLLSWYDQEKRDLPWRRRAEDEMDLDRRAYAVWVSEVMLQQTQVATVINYYTGWMQKWPTLQDLARASLEEVNQLWAGLGYYSRGRRLQEGARKVVEELGGHMPRTAETLQQLLPGVGRYTAGAIASIAFGQATGVVDGNVARVLCRVRAIGADPSSTLVSQQLWGLAQQLVDPARPGDFNQAAMELGATVCTPQRPLCSQCPVESLCRARQRVEQEQLLASGSLSGSPDVEECAPNTGQCHLCLPPSEPWDQTLGVVNFPRKASRKPPREESSATCVLEQPGALGAQILLVQRPNSGLLAGLWEFPSVTWEPSEQLQRKALLQELQRWAGPLPATHLRHLGEVVHTFSHIKLTYQVYGLALEGQTPVTTVPPGARWLTQEEFHTAAVSTAMKKVFRVYQGQQPGTCMGSKRSQVSSPCSRKKPRMGQQVLDNFFRSHISTDAHSLNSAAQ [S136R]	0.0299
MRKPRAAVGSGHRKQAASQEGRQKHAKNNSQAKPSACDGLARQPEEVVLQASVSSYHLFRDVAEVTAFRGSLLSWYDQEKRDLPWRRRAEDEMDLDRRAYAVWVSEVMLQQTQVATVINYYTGWMQKWPTLQDLANASLEEVNQLWAGLGYYSRGRRLQEGARKVVEELGGHMPRTAETLQQLLPGVGRYTAGAIASIAFGQATGVVDGNVARVLCRVRAIGADPSSTLVSQQLWGLAQQLVDPARPGDFNQAAMELGATVCTPQRPLCSQCPVESLCRARQRVEQEQLLASGSLSGSPDVEECAPNTGQCHLCLPPSEPWDQTLGVVNFPRKASRKPPREESSATCVLEQPGALGAQILLVQRPNSGLLAGLWEFPSVTWEPSEQLQRKALLQELQRWAGPLPATHLRHLGEVVHTFSHIKLTYQVYGLALEGQTPVTTVPPGARWLTQEEFHTAAVSTAMKKVFRVYQGQQPGTCMGSKRSQVSSPCSRKKPRMGQQVLDNFFRSHISTDAHSLNSAAQ [S136N]	-0.0676
MRKPRAAVGSGHRKQAASQEGRQKHAKNNSQAKPSACDGLARQPEEVVLQASVSSYHLFRDVAEVTAFRGSLLSWYDQEKRDLPWRRRAEDEMDLDRRAYAVWVSEVMLQQTQVATVINYYTGWMQKWPTLQDLAMASLEEVNQLWAGLGYYSRGRRLQEGARKVVEELGGHMPRTAETLQQLLPGVGRYTAGAIASIAFGQATGVVDGNVARVLCRVRAIGADPSSTLVSQQLWGLAQQLVDPARPGDFNQAAMELGATVCTPQRPLCSQCPVESLCRARQRVEQEQLLASGSLSGSPDVEECAPNTGQCHLCLPPSEPWDQTLGVVNFPRKASRKPPREESSATCVLEQPGALGAQILLVQRPNSGLLAGLWEFPSVTWEPSEQLQRKALLQELQRWAGPLPATHLRHLGEVVHTFSHIKLTYQVYGLALEGQTPVTTVPPGARWLTQEEFHTAAVSTAMKKVFRVYQGQQPGTCMGSKRSQVSSPCSRKKPRMGQQVLDNFFRSHISTDAHSLNSAAQ [S136M]	0.116
MRKPRAAVGSGHRKQAASQEGRQKHAKNNSQAKPSACDGLARQPEEVVLQASVSSYHLFRDVAEVTAFRGSLLSWYDQEKRDLPWRRRAEDEMDLDRRAYAVWVSEVMLQQTQVATVINYYTGWMQKWPTLQDLAPASLEEVNQLWAGLGYYSRGRRLQEGARKVVEELGGHMPRTAETLQQLLPGVGRYTAGAIASIAFGQATGVVDGNVARVLCRVRAIGADPSSTLVSQQLWGLAQQLVDPARPGDFNQAAMELGATVCTPQRPLCSQCPVESLCRARQRVEQEQLLASGSLSGSPDVEECAPNTGQCHLCLPPSEPWDQTLGVVNFPRKASRKPPREESSATCVLEQPGALGAQILLVQRPNSGLLAGLWEFPSVTWEPSEQLQRKALLQELQRWAGPLPATHLRHLGEVVHTFSHIKLTYQVYGLALEGQTPVTTVPPGARWLTQEEFHTAAVSTAMKKVFRVYQGQQPGTCMGSKRSQVSSPCSRKKPRMGQQVLDNFFRSHISTDAHSLNSAAQ [S136P]	-0.137
MRKPRAAVGSGHRKQAASQEGRQKHAKNNSQAKPSACDGLARQPEEVVLQASVSSYHLFRDVAEVTAFRGSLLSWYDQEKRDLPWRRRAEDEMDLDRRAYAVWVSEVMLQQTQVATVINYYTGWMQKWPTLQDLATASLEEVNQLWAGLGYYSRGRRLQEGARKVVEELGGHMPRTAETLQQLLPGVGRYTAGAIASIAFGQATGVVDGNVARVLCRVRAIGADPSSTLVSQQLWGLAQQLVDPARPGDFNQAAMELGATVCTPQRPLCSQCPVESLCRARQRVEQEQLLASGSLSGSPDVEECAPNTGQCHLCLPPSEPWDQTLGVVNFPRKASRKPPREESSATCVLEQPGALGAQILLVQRPNSGLLAGLWEFPSVTWEPSEQLQRKALLQELQRWAGPLPATHLRHLGEVVHTFSHIKLTYQVYGLALEGQTPVTTVPPGARWLTQEEFHTAAVSTAMKKVFRVYQGQQPGTCMGSKRSQVSSPCSRKKPRMGQQVLDNFFRSHISTDAHSLNSAAQ [S136T]	0.078
MRKPRAAVGSGHRKQAASQEGRQKHAKNNSQAKPSACDGLARQPEEVVLQASVSSYHLFRDVAEVTAFRGSLLSWYDQEKRDLPWRRRAEDEMDLDRRAYAVWVSEVMLQQTQVATVINYYTGWMQKWPTLQDLAQASLEEVNQLWAGLGYYSRGRRLQEGARKVVEELGGHMPRTAETLQQLLPGVGRYTAGAIASIAFGQATGVVDGNVARVLCRVRAIGADPSSTLVSQQLWGLAQQLVDPARPGDFNQAAMELGATVCTPQRPLCSQCPVESLCRARQRVEQEQLLASGSLSGSPDVEECAPNTGQCHLCLPPSEPWDQTLGVVNFPRKASRKPPREESSATCVLEQPGALGAQILLVQRPNSGLLAGLWEFPSVTWEPSEQLQRKALLQELQRWAGPLPATHLRHLGEVVHTFSHIKLTYQVYGLALEGQTPVTTVPPGARWLTQEEFHTAAVSTAMKKVFRVYQGQQPGTCMGSKRSQVSSPCSRKKPRMGQQVLDNFFRSHISTDAHSLNSAAQ [S136Q]	-0.0528

— the supplement of paper PMC11908140
